Source: patent US20060121042A1 (AstraZeneca / MedImmune, published 2006)
Values belong to the binder of their own block, whether it stands above or below them.

What was measured:
[1] = target: T1, r murine EphA7 (mouse, UniProt Q61772); experiment: activity ELISA, Fab on coated antigen
T1 construct: recombinant Fc fusion (R&D Systems); also called rmuEphA7-Fc; mEphA7
T1 sequence (receptor-Fc fusion, looked up): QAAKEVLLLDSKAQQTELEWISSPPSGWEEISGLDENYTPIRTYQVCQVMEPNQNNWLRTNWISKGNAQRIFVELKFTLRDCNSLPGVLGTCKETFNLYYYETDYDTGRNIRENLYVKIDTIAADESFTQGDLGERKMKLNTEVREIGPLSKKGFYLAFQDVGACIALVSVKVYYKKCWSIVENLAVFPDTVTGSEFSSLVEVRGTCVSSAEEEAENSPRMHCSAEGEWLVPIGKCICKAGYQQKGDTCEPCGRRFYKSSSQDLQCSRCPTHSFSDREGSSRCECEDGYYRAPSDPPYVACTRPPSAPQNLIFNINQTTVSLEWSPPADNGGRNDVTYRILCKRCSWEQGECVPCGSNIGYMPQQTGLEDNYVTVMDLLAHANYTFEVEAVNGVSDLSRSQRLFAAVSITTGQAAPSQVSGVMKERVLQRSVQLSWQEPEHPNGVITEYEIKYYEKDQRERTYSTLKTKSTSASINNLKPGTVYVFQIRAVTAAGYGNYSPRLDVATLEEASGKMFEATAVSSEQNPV
Procedure: (§1) More precisely, Nunc Maxisorp plates were coated with the following rEphA proteins: rhuEphAl-Fc, rmuEphA2-Fc, rmuEphA3-Fc, rmuEphA4-Fc, rratEphA5-Fc, rmuEphA6-Fc, rmuEphA7-Fc, rEphA8; all at 0.5 μg/well (all R&D Systems) rhuEphA2-Fc; 0.5 μg/well, and rhuEphA4-His; 0.1 μg/well (both produced at MedImmune, Inc.). Plates were blocked with 3% BSA+0.1% Tween20 for 2 h. […] Incubation with a goat anti-human kappa horseradish peroxydase (HRP) conjugate then followed. HRP activity was detected with TMB substrate and the reaction quenched with 0.2 M H₂SO₄. Plates were read at 450 nm. Data was analyzed by normalizing Fab concentrations to the corresponding activity data (see FIGS. 10B-10H).

[2] = target: T2, r murine EphA8 (mouse, UniProt O09127); experiment: activity ELISA, Fab on coated antigen
T2 construct: recombinant (rEphA8, R&D Systems); also called rEphA8
T2 sequence (receptor, looked up): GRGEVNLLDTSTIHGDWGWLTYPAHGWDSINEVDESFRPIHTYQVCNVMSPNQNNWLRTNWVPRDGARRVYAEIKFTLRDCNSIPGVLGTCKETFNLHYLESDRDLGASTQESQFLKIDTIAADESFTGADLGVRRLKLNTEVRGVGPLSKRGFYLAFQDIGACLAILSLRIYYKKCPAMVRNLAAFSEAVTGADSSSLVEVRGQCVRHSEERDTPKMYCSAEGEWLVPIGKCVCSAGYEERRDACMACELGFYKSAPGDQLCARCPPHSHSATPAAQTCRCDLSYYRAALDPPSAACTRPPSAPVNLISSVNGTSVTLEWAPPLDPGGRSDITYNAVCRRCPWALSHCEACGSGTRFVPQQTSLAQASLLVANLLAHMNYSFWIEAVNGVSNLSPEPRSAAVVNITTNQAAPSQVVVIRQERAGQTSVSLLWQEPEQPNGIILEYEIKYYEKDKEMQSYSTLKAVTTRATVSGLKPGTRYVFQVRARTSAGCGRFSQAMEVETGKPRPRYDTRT
Procedure: as §1

[3] = target: T3, r murine EphA4 (mouse, UniProt Q03137); experiment: activity ELISA, Fab on coated antigen
T3 construct: recombinant Fc fusion (R&D Systems); also called rmuEphA4-Fc; mEphA4
T3 sequence (Q03137 20-547 limits assumed): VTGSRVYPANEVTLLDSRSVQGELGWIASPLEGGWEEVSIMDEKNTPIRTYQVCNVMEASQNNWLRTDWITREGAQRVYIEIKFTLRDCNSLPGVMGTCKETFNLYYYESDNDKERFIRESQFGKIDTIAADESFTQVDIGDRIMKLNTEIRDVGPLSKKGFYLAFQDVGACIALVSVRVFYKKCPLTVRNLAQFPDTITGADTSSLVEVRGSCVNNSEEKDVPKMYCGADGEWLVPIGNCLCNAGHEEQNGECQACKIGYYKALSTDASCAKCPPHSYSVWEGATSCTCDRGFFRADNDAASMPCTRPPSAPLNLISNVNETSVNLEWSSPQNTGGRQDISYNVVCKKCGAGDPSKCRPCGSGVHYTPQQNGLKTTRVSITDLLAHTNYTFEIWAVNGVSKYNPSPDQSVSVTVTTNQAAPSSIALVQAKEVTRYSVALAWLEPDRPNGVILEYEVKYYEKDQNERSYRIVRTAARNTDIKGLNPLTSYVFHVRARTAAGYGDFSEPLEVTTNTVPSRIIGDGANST
Procedure: as §1

[4] = target: T4, human EphA4 (construct not given) (human, UniProt P54764 20-547, limits assumed); experiment: capture ELISA, 25 ng/well sheep anti-human Fd
T4 construct: also called EphA4 receptor
T4 sequence (P54764 20-547 limits assumed): as the sequence (Q03137 20-547 limits assumed) above, with A59P, S121N, G124V, Q250R, N251S, S270T, R378K, S406N counted along it

[5] = target: T1, r murine EphA7; experiment: activity ELISA, IgG on coated antigen
Procedure: (§2) Secondary screening of IgG constructs of affinity optimized combinatorial variants with additional EphA receptors: With purified IgG constructs of the nine combinatorial variants, additional secondary screening assays were performed using the Activity ELISA (see above) and recombinant EphA receptor proteins. More precisely, Nunc Maxisorp plates were coated with the following rEphA proteins: rhuEphAl-Fc; 0.5 μg/well, rmuEphA2-Fc; 0.5 μg/well, rmuEphA3-Fc: 0.1 μg/well, rmuEphA4-Fc; 0.1 μg/well, rratEphA5-Fc; 0.5 μg/well, rmuEphA6-Fc; 0.5 μg/well, rmuEphA7-Fc; 0.1 μg/well, rEphA8; 0.2 μg/well (all R&D Systems), rhuEphA2-Fc; 0.5 μg/well, and rhuEphA4-His; 0.1 μg/well (both produced at MedImmune, Inc.). Plates were blocked with 3% BSA+0.1% Tween20 for 2 h. […] Incubation with a goat anti-human kappa horseradish peroxydase (HRP) conjugate then followed. HRP activity was detected with TMB substrate and the reaction quenched with 0.2 M H₂SO₄. Plates were read at 450 nm. Data was analyzed by normalizing Fab concentrations to the corresponding activity data (see FIGS. 12A-12J and 14).

[6] = target: T3, r murine EphA4; experiment: activity ELISA, IgG on coated antigen
Procedure: as §2

[7] = target: T5, Human EphA4-His fusion protein (human, UniProt P54764 20-547); experiment: BIAcore, IgG immobilized on the sensor chip, EphA4-his as analyte; comment on the sheet: marginal fit
T5 construct: also called rhuEphA4-His; not shown: Histidine tag
T5 sequence (P54764 20-547): as the sequence (Q03137 20-547 limits assumed) above, with A59P, S121N, G124V, Q250R, N251S, S270T, R378K, S406N counted along it
Procedure: (§3) FIG. 15A-15B. […] Binding affinities were measured using the BIAcore assay. […] Variant kinetic measurements for human EphA4 and were obtained using BIAcore with immobilized variant antibodies and human EphA4-Fc and EphA4-His as analytes.

[8] = target: T6, mEphA4 (mouse, UniProt Q03137); experiment: ELISA, receptor coated on the plate, purified IgG, anti-human kappa-HRP
T6 construct: part of an Fc fusion; also called rmuEphA4-Fc
T6 sequence (Q03137 20-547 limits assumed): as the sequence (Q03137 20-547 limits assumed) above
Procedure: as §2

[9] = target: T7, mEphA7 (mouse, UniProt Q61772); experiment: as above
T7 construct: part of an Fc fusion; also called rmuEphA7-Fc
T7 sequence (receptor-Fc fusion, looked up): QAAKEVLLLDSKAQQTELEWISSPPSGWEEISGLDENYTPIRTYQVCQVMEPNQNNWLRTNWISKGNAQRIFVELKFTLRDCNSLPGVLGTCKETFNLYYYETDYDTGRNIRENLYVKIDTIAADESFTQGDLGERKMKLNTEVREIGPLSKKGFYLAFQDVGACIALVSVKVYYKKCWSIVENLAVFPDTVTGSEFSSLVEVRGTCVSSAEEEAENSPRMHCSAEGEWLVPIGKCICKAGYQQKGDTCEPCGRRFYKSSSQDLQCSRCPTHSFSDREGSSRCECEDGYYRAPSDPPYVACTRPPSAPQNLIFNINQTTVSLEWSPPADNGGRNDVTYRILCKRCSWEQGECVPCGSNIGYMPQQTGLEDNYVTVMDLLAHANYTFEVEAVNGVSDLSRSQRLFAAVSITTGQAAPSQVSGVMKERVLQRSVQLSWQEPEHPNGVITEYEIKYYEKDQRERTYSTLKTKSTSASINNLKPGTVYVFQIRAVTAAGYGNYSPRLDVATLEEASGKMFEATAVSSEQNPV
Procedure: as §2

[10] = target: T8, Human EphA4-Fc fusion protein (human, UniProt P54764 20-547); experiment: BIAcore, IgG immobilized on the sensor chip, EphA4-Fc as analyte; comment on the sheet: marginal kinetic fit
T8 construct: not shown: Fc portion of a human IgG1
T8 sequence (P54764 20-547): as the sequence (Q03137 20-547 limits assumed) above, with A59P, S121N, G124V, Q250R, N251S, S270T, R378K, S406N counted along it
Procedure: as §3

[11] = target: T5, Human EphA4-His fusion protein; experiment: BIAcore, IgG immobilized on the sensor chip, EphA4-his as analyte
Procedure: as §3

[12] = target: T9, r murine EphA3 (mouse, UniProt P29319); experiment: activity ELISA, IgG on coated antigen
T9 construct: recombinant Fc fusion (R&D Systems); also called rmuEphA3-Fc; mEphA3
T9 sequence (receptor-Fc fusion, looked up): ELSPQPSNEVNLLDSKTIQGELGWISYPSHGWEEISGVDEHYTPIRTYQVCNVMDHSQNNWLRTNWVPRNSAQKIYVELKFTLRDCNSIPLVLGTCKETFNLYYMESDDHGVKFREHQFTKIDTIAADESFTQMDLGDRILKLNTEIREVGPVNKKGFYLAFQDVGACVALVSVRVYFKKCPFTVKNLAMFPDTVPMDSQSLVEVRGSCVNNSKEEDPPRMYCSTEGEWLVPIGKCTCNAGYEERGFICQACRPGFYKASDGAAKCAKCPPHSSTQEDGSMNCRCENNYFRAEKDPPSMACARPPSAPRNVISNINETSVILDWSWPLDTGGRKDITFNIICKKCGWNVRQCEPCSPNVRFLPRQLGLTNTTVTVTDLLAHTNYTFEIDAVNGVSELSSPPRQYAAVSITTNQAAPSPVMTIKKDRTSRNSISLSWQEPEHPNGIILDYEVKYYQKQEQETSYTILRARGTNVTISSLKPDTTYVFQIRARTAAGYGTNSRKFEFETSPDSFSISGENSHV
Procedure: as §2

[13] = target: T10, mEphA3 (mouse, UniProt P29319); experiment: ELISA, receptor coated on the plate, purified IgG, anti-human kappa-HRP
T10 construct: part of an Fc fusion; also called rmuEphA3-Fc
T10 sequence (receptor-Fc fusion, looked up): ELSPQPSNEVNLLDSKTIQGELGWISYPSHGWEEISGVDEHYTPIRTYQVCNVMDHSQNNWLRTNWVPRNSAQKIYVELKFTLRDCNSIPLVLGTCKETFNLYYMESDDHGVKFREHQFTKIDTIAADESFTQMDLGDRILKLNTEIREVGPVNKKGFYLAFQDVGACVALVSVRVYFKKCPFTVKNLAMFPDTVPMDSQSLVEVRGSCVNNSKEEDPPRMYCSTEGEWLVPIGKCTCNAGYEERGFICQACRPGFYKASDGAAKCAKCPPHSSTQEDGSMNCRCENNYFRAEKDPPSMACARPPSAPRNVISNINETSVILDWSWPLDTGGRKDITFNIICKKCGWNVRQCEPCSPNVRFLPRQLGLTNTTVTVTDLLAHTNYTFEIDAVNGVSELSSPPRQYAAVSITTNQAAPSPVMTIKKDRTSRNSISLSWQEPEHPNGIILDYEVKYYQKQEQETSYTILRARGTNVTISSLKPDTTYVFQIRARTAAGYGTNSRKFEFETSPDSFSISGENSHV
Procedure: as §2

[14] = target: T8, Human EphA4-Fc fusion protein; experiment: BIAcore, IgG immobilized on the sensor chip, EphA4-Fc as analyte
Procedure: as §3

B1: 2C9 Fab (affinity optimized combinatorial variant of Fab20) (Fab, V domains shown)
VH: QVQLLQSGAEVKKPGASVKVPCKASGYTFTSRAMSWVRQAPGQGLEWMGWINTNTGNPTYAQGFTGRFVFSLDTSVSTAYLQISSLKAEDTAVYYCARVRFTVYGDGMDVWGQGTLVTVSS
VL: EIVLTQSPATLSVSPGERATLSCRASQSVSSNLAWYQQKPGQAPRLLIYGASTRPTGIPDRFSASGSGTDFTLTISRVEPEDFAVYYCQQYGPSWTFGQGTKVEIK
binding result [1]: binds | binding result [2]: binds | binding result [3]: binds

B2: 11G6 Fab (affinity optimized CDR3 heavy variant of Fab20) (Fab, V domains shown)
VH: QVQLLQSGAEVKKPGASVKVPCKASGYTFTSYAMSWVRQAPGQGLEWMGWINTNTGNPTYAQGFTGRFVFSLDTSVSTAYLQISSLKAEDTAVYYCARVRFTVYGDGMDVWGQGTLVTVSS
VL: EIVLTQSPATLSVSPGERATLSCRASQSVSSNLAWYQQKPGQAPRLLIYGASTRATGIPDRFSASGSGTDFTLTISRVEPEDFAVYYCQQYGSSWTFGQGTKVEIK
fold increase in affinity over Fab20 parental background [4]: 1.6 fold

B5: 1A4 IgG1 (affinity optimized combinatorial variant of mAb GEA44 in human IgG1 format) (antibody, V domains shown)
VH: QVQLLQSGAEVKKPGASVKVPCKASGYTFTSRAMSWVRQAPGQGLEWMGWINTNTGNPTYAQGSTGRFVFSLDTSVSTAYLQISSLKAEDTAVYYCARVRFTVYGDGMDVWGQGTLVTVSS
VL: EIVLTQSPATLSVSPGERATLSCRASQSVSSNPAWYQQKPGQAPRLLIYGASTRATGIPDRFSASGSGTDFTLTISRVEPEDFAVYYCQQYGPSWTFGQGTKVEIK
Kd [11]: 0.8 nM | koff [11]: 0.000345 s⁻¹ | kon [11]: 431000 M⁻¹ s⁻¹ | binding result [5]: binds | binding result [12]: binds | binding result [6]: binds | binding result [8]: binds | binding result [9]: binds | binding result [13]: binds | Kd [14]: 0.037 nM | koff [14]: 2.87e-05 s⁻¹ | kon [14]: 769000 M⁻¹ s⁻¹

Now from value to binder:

binding result [5]: binds | binding result [6]: binds | Kd [7]: 1 nM | koff [7]: 0.000602 s⁻¹ | kon [7]: 600000 M⁻¹ s⁻¹ | binding result [8]: binds | binding result [9]: binds | Kd [10]: 0.023 nM | koff [10]: 5.41e-05 s⁻¹ | kon [10]: 2.33e+06 M⁻¹ s⁻¹
B3: 1B10 IgG1 (affinity optimized combinatorial variant of mAb GEA44 in human IgG1 format) (antibody, V domains shown)
VH: QVQLLQSGAEVKKPGASVKVPCKASGYTFTSRAMSWVRQAPGQGLEWMGWINTNTGNPTYAQGFTGRFVFSLDTSVSTAYLQISSLKAEDTAVYYCARVRFTVYGDGMDVWGQGTLVTVSS
VL: EIVLTQSPATLSVSPGERATLSCRASQSVSSNPAWYQQKPGQAPRLLIYGASTWATGIPDRFSASGSGTDFTLTISRVEPEDFAVYYCQQYGPSWTFGQGTKVEIK

fold increase in affinity over Fab20 parental background [4]: 1.4 fold
B4: 11H1 Fab (single-change CDR3 heavy variant of Fab20) (Fab, V domains shown)
VH: QVQLLQSGAEVKKPGASVKVPCKASGYTFTSYAMSWVRQAPGQGLEWMGWINTNTGNPTYAQGFTGRFVFSLDTSVSTAYLQISSLKAEDTAVYYCARVRLTVYGDGMDVWGQGTLVTVSS
VL: EIVLTQSPATLSVSPGERATLSCRASQSVSSNLAWYQQKPGQAPRLLIYGASTRATGIPDRFSASGSGTDFTLTISRVEPEDFAVYYCQQYGSSWTFGQGTKVEIK
notes: also called GEA44 derivative 11H1
